Results published in paper PMC4705956.

Target: Asp93 (UniProt position 93, WARYADWLFTT)
Experiment: UV-vis
Settings: 298 K; 100 mM NaCl (Fig. 7 caption); the Methods state 4 M NaCl for UV-visible spectroscopy; Not stated for the titration; the Methods give 50 mM Tris-HCl for UV-visible samples; Folded, retinal-bound, detergent-solubilised. Light or dark adaptation is not stated.

Substance | pKa
Bacteriorhodopsin (HwBR) (Haloquadratum walsbyi) | 1.97
Bacteriorhodopsin (HwBR) R82E mutant (Haloquadratum walsbyi; R82E) | 2.24
